Data on 21 sequences can be found in the DeepSol protein solubility set.

This series in a line: soluble on expression in E. coli; label from the status in PepcDB or PDB records.
Take “MSLAYGNINQPFSLESLPDELIPENLYQIETDSSRVFQRHQCRRLAHLLLFQLLKIAGKSTALLSQIHRTESGRPYFLDERIDFNISHSGDWVAVILDIRNEEKSAVGIDIEFPKIRNFTALMEHIAPKEEIDWFHHQQDSLNAFYRCWCLREAVLKSQGFGIVKLSNVRHFPEQQKIFSDYCPQGQLWFTDELPIYLAAFVNHQEKLPHFYEWNRESLQIKELEKYVLYEVNEGHHHHHH”: the “soluble on expression in E. coli” value is “not soluble”.
For “PKTGPTMTKELVFSSNIGQHDLDTKSKQIQQWIEKKYHVQVTIKRRKDAEQSEEETEEIFNQILQTMPDIATFSSRPKAIRGGTASMCVFRHLSKKEEK”, the “soluble on expression in E. coli” value is recorded as “soluble”.
Next, “SGRKRFITDSYPVVKKREGPPGHNKGELAPELGEDTQSLSQEETELELLRQFDLAWQYGPCTGITRLQRWHRAEQMGLKPPVEVYQVLKTHPEDSRFQCSLWHLYPL”: “soluble”; “MSLTNEKSTEEIALGIRRRVFFHTMKNNGGYLSQACSAAESLALLYNELLTLGEPTLPKVPLPFRGVPSAHNPDAFTGAGYHGPVGPNFDRFFISPAHYALVIYSVLIEMGRMDEHALDHFNKDGGSVEMIGAEHSPGMEVTTGSLAQGLSMASGVAWARLRKKEPGKVWVYMSDGEFQEGQTWECLAAMSYHKIDNIRVIVDVNRQQCDGAMSSVLDLGDLASRVASFGVTCRSVDGHDLGALRAAAESAEAGKPLVILANTSPYQGMDFLKKRFPRLHYVRFKSAEERQEMQTALAIELGIDLTAMERAEGHHHHHH”: “not soluble”; “MGSDKIHHHHHHMNLNIAICDDDTNDIAIMKKNILQYTIETDNNIVVSSYFSASDILSDYKNHLYQIVLLDIEMPDINGMELARQLRDMDDDLLIIFTTSYPEYMHESFEVQPFQFITKPVDYTAIYKLFNNIIKKLYRNSKSIVIIDTDGEKNFVPLSDLLYISSMKENKLHLRYQLTDRALISKGTLSEAEKRLSSHGFVSPSRGFLVNLHQIRSITSTRLLLNNGFELPISRRRSKELQNIYSQHIINIL”: “not soluble”.
For “MPKITVYTGKEVLQIDAKEGSSLLDILAENSLYVEAPCGGKGICGKCKVAVKKDGKPYLENITKEEKRLLTSDELQKGIRLCCNLKVFESLEVFLPHSKIGAKILSGLYTLEHHHHHH”, the “soluble on expression in E. coli” value is given as “not soluble”.
Consider “MEICADELKKVLNTVVNKHKDLKTHGFTLESCRSMIALMDTDGSGKLNLQEFHHLWNKIKAWQKIFKHYDTDQSGTINSYEMRNAVNDAGFHLNNQLYDIITMRYADKHMNIDFDSFICCFVRLEGMFRAFHAFDKDGDGIIKLNVLEWLQLTMYA”, for which the “soluble on expression in E. coli” value was “soluble”.
Next, “MSLKDRFDRFIDYFTEDEDSSLPYEKRDEPVFTSVNSSQEPALPMNQPSQSAGTKENNITRLHARQQELANQSQRATDKVIIDVRYPRKYEDATEIVDLLAGNESILIDFQYMTEVQARRCLDYLDGACHVLAGNLKKVASTMYLLTPVNVIVNVEDIRLPDEDQQGEFGFDMKRNRVRLEHHHHHH”: “not soluble”.
Next, “MAHHHHHHMSSGRRDIIFFGSIAVSILGHEVHDEAVAPQLERQNARIKLHTTARAPYAKTEEVFGLDATSPLYEIHSADFKASPTSSLTPQRGAPHPRHHRQKAAFLPVMLKLAQDAAVEEVPSIEDQDGALLQLDSPTNNVDPAPSYASASVRIEVDMSRSGGDATPVGTKEVFLPSLNYLAIRDMCTVVRIPVWSNTIQRSETGDVDVAELDRRSPQPQRAGDDNSSSSSGVLGGVRDRNSRGDAVSGVALSVYAMVRVISLAEKVRLALEADDAVRCLLGLPDPVPGVSLALTQRGDAPYGAMPLTELYKHHRQFFGYYSNTIIKHSNVVTQRLAEAPRQREADASFPHRWNTLTVVDLRPALLGEDAFAPLLVTLAYCANLRALYADGNHLGDLTCARLSALFRRHRYLARVSLSKNTIHEAGGEHLLRLVRNNLRITSMPCQGNYFSDALRSRIEEVARRNASVIAQDPLNIFSASYDYLTDLSSLPNSLQQQGLRTWAMLSAAPVGDVDVMVRNFTTSTQRTLGDSPVVAMQRAKTALRARESFSLIPPAALAPFLNEIMRTVSVGVSRVLPDPLVRSLFSDMETVVAREQEQVEAQRRDELAGGSRDASLLPPEVCDAVGGAYTPPVDSETMYARSFVRIVVAALRGVALGTPWAEIAKVLEGIGRVHRDLGVMPEDYWLAVHIFMTSLRISCGAECYDADSASSFLGLLALAVRTAVGTDTVLQ”: “not soluble”; “AGQGESGNPPATDKERFIASLMARMSNAEKIGQLRLVSVGADHPKEALMADIRAGKVGAIFNTVTRPDIRAMQDQVRHSRLKIPLFHAYDVAHGHRTIFPISLGLAASWDPEVVARSARISALEASADGLDMSFSPMVDITRDARWGRVSEGFGEDTYLTSLLSGVMVRAYQGSNLAAPDSIMAAVKHFALYGAAEGGRDYNTVDMSLPRMFQDYLPPYKAAVDAGAGAVMVSLNTINGVPATANRWLLTDLLRQQWGFKGLTISDHGAVKELIKHGLAGNERDATRLAIQAGVDMNMNDDLYSTWLPKLLAAGEIDQADIDRACRDVLAAKYDLGLFADPYRRLGKPDDPPFDTNAESRLHRQAAREVAREGLVLLKNRDGLLPLKKQGRIAVIGPLAKSQRDVIGSWSAAGVPRQAVTVYQGLANAVGERATLLYAKGANVSGDQAILDYLNSYNPEVEVDPRSAEAMLEEALRTARDADLVVAVVGESQGMAHEASSRTDLRIPASQRRLLKALKATGKPLVLVLMNGRPLSLGWEQENADAILETWFSGTEGGNAIADVLFGEHNPSGKLTMSFPRSVGQVPVYYNHLNTGRPMDHDNPGKYTSRYFDEANGPLYPFGYGLSYTEFSLSPLRLSSERLARGATLEARVTLSNSGKRAGATVVQLYLQDPVASLSRPVKELRGFRKVMLEPGESREIVFRLGEADLKFYDSQLRHTAEPGEFKVFVGLDSAQTESRSF”: “not soluble”; “AHHHHHHGSFRLRDFEYYNRTVFLRVDLNSPMSNGKIISDARFRAVLPTIKYLIESGAKVVVGTHQGKPYSEEYSTTEEHARILSELLNMHVEYVEDIFGKYARERIKAMKPGEVIVLENLRFSAEEVKNATIEECEKTFFVRKLSQVIDLVVNDAFAAAHRSQPSLVGFARIKPMIMGFLMEKEVDALTKAYESEEKPRVYVLGGAKVDDSLKVAENVLRKEKADLILTGGLVGQLFTLAKGFDLGRENIKFLEKKGILKYVDWAEKILDEFYPYVRTPVDFAIDFKGERVEIDLLSDEKRLFDEYPILDIGSRTVEKYREILLKARIIVANGPMGVFEREEFAVGTIGVFKAIGESPAFSVIGGGHSIASIYKYNITGISHISTGGGAMLTFFAGEKLPVLEALKISYEKFSNLLS”: “soluble”.
The entry for “MLAMVNKVLDWIRSLFWKEEMELTLVGLQNSGKTTFVNVIASGQFTEDMIPTVGFNMRKITKGNVTIKLWDIGGQPRFRSMWERYCRGVNAIVFMVDAADEEKLEASRNELMQLLDKPQLDAIPVLVLGNKKDLPGALDERQLIERMNLSSIQNREICCYSISCKEKENIDITLQWLIDHSKAQR” is “not soluble”; for “SEGSASEVLKEWIVTGKKKNKKKKSKPKPASEASGSAPDSSKSAPIQEEQPASSEKGSINGYHVNGAINDAESVDSLSEGLETLSIDARELEDPEFAAAETLDRTGSVLENGVSDFEPKSLTAHSISNVQQSRNAAKSLSRTTPGAQVSNLGMENVPLSSTNKKLGSNIEKSVKDLQRCTVSLARYRVVVKEEMDASIKKMKQAFAELQSCLMDREVALLAEMDKVKAEAMEILLSRQKKAELLKKMTDVAVRMSEEQLVELRADIKHFVSERKYDEDLGRVARFTCDVETLKQSIDSFGQVSHPKNSYSTRSRCSLVAPVSLSGPSDGSAASSSPDASVPSLPGANKRNCAPREASAAMTNSSDRPCQAHREVFPGNRRGGQGYRAQSQKTADPSNPGRHDSVGRYRNSSWYSSGPRYQGVPPQAPGNAGERSRPYSAGTNGTGAISEPSPPKPSFKKGLPQRKPRASQAEAANS” it is “not soluble”.
For the sequence “MAIFSRTKRVTDPLDDDAKARILSSHSYILDQDSPRLCELVHGFLEDGPEESFYDSDPDLSETSSAEHSGEASVEIVRMAVSFSDSDPYRNLLLAHVLRAVEVYSGFRSRNKTVFRDKVASFLRELGHDAAVCVSKWTSSSKLIAGSYHFIDVVHKPSDNDQKAVRYLVDLDFASEFEIARPTREYTRGLQLLPNVFVGNEENLRTIVRESCDAAKRSMKSRGLSLPPWRRSSYLQHKWFGPYKRKVGSSLGVKPLNSDAVSCRSLGFDDGAVNTRLFIRA”, the “soluble on expression in E. coli” value is “soluble”.
Next, “MGSDKIHHHHHHMPGPYNEMDVAISYIHNHLYEPLSLSHIASYVGYSSYHFSRLFKEKTGLSPLYYVSSLRLQKAKELLLNTNLTVRDIGLEIGQQSLGTFTTRFTKCVGMSPSHFRESMNQVNHSLHSLQMLSDWRTSLQSIHPFSTVTGTIDSEAPLEGFILIGLFSKPIPEGLPLYGNLLSSTGAFSFTGVTPGIYYLMATSISWSMQAKDILLPYTTLRGRIKEPIIVTSSPSILEYSLTLHTPRLDDPPILISLPLLMKNFLKARIAT”: “not soluble”; “MNVLIVDDEPLARERLSRMVNEIEGYRVLEDSASNGEEALALIEKHKPDVVLLDIRMPGIDGLQVAAKLCEREAPPAVVFCTAHDEFALEAFQVSAVGYLVKPVRAEHLIEALKKAERPNRVQLAAMTRPAAESGSGPRTHISARTRKGIELIPLDQVIYFIADHKYVTLRHEGGEVLLDEPLKALEDEFGDRFVRIHRNALVARKRIESMKRTPVGHFELFLRGLNGDALIVSRRHVAGVRKMMQQL”: “soluble”; “MGSDKIHHHHHHMSKNEIIWFDGKWSDSGVPMIGAADHAFWMASTVFDGARAINGHLPDLSAHSQRVINSALTMGMKPKIDRQEIERLVHEGMSHLTNQETDYYIKMLFFCPGGFLLPDADTTTFALHIFEAPLPEDKGFSATFSEYRRPAPSMAPTEAKASCLYPNTQRIIRDAIARGFENAVVLDSDGNVAEFAVANLWIVRDGVALTPTPNGSFLNGITRQRVMALLRDDGITVRETQLAPSDVMEADEVFSTGNHGKVLHCNRVEDRSLPYGPIAQRARELYMAYAHTC”: “not soluble”.
On to “MPMVRVATNLPNEKVPVDFEIRLTDLLARSMGKPRERIAVEIAAGARLVHGATHDPVTVISIKSIGAVSAEDNIRNTAAITEFCGKELGLPKDKVVITFHDLPPATVGFNGTTVAEANKK”, for which the “soluble on expression in E. coli” value is recorded as “not soluble”.
“MAHHHHHHMNKNYPGRITSAPLAQQARGLSLRPGAPASFLDRAQPGGAGTGIGAQQSHHNNNLPRAPRAKPPTQLQTPAPAPPLPKEEAEEERSGAAEVAPSEVSYPEDHIYDVEDFIKLRKCQAPVPSEVMEYARAMWKEMPENMDDMENNSLRDNLFREQNASTMSKVMTDRKINNEVLGILGKVTASNLEKMKKELTDLPIRQSTKEEIDEV”: the “soluble on expression in E. coli” value is listed as “soluble”.
For “MSLKLNWDKAIDKAIKRYGLRVEPQLISYFSKAGVSYPPKEIALLAFKSERKVELWAKNPSQEWTHIHDYPLTGFSGRLGPKLRENDKQIPEGIYKLVNFNPFSSMHLSMMINYPNSFDRQKGYMDGRKELGNNIFIHGKNLSVGCLAVGDLAIDQLFILARRVGLKNIQVIIAPNDLRYQKPSTSTFAQPRWLPELYKQITESLKPFKKTKFTAEGHHHHHH”, the “soluble on expression in E. coli” value was “soluble”.
Turning to “MNHYVYILECKDGSWYTGYTTDVDRRIKKHASGKGAKYTRGRGPFRLVATWAFPSKEEAMRWEYEVKHLSRRKKEQLVSLKGGPYENTTKLSTTMAGDPLEHHHHHH”, the “soluble on expression in E. coli” value is listed as “soluble”.
